Here are results for 1 substance from paper PMC3946371.

The experiment concerns the target Vaccinia virus D4 with non-cleavable N-terminal His-tag, co-expressed with MBP-A20(1-50) (vaccinia virus (Copenhagen strain)) (UniProt P20536). Description: SEC-MALS. In general terms: In gel filtration, larger molecules generally elute earlier.

In turn, “First 50 amino acids of vaccinia virus A20, wild type, released from MBP by TEV (from UniProt P20995 1-50) (domain or fragment)” came in with a stoichiometry N of 1.

What is called stoichiometry N is the number of molecules, sites or subunits per partner or assembly.
